The chains are these.
B1: TGFb1_024 (peptide)
peptide: {CH2CO}-F[1Nal]V[KCOmeglumine]NV[4Pal]DE[Gly(NCH2CH2Ph)]V[1Nal]YH[KCOpipzaa]CG-NH2
modifications: thioether N-16
SMILES: CC(C)[C@@H]1NC(=O)CN(CCc2ccccc2)C(=O)[C@H](CCC(=O)O)NC(=O)[C@H](CC(=O)O)NC(=O)[C@H](Cc2ccncc2)NC(=O)[C@H](C(C)C)NC(=O)[C@H](CC(N)=O)NC(=O)[C@H](CCCCNC(=O)N(C)C[C@H](O)[C@@H](O)[C@H](O)[C@H](O)CO)NC(=O)[C@H](C(C)C)NC(=O)[C@H](Cc2cccc3ccccc23)NC(=O)[C@H](Cc2ccccc2)NC(=O)CSC[C@@H](C(=O)NCC(N)=O)NC(=O)[C@H](CCCCNC(=O)N2CCN(CC(=O)O)CC2)NC(=O)[C@H](Cc2c[nH]cn2)NC(=O)[C@H](Cc2ccc(O)cc2)NC(=O)[C@H](Cc2cccc3ccccc23)NC1=O
B2: TGFb1_025 (peptide)
peptide: {CH2CO}-F[1Nal]V[KCOmeglumine]NV[4Pal]D[KCOpipzaa][Gly(NCH2CH2Ph)]V[1Nal]YH[KCOpipzaa]CG-NH2
modifications: thioether N-16
SMILES: CC(C)[C@@H]1NC(=O)CN(CCc2ccccc2)C(=O)[C@H](CCCCNC(=O)N2CCN(CC(=O)O)CC2)NC(=O)[C@H](CC(=O)O)NC(=O)[C@H](Cc2ccncc2)NC(=O)[C@H](C(C)C)NC(=O)[C@H](CC(N)=O)NC(=O)[C@H](CCCCNC(=O)N(C)C[C@H](O)[C@@H](O)[C@H](O)[C@H](O)CO)NC(=O)[C@H](C(C)C)NC(=O)[C@H](Cc2cccc3ccccc23)NC(=O)[C@H](Cc2ccccc2)NC(=O)CSC[C@@H](C(=O)NCC(N)=O)NC(=O)[C@H](CCCCNC(=O)N2CCN(CC(=O)O)CC2)NC(=O)[C@H](Cc2c[nH]cn2)NC(=O)[C@H](Cc2ccc(O)cc2)NC(=O)[C@H](Cc2cccc3ccccc23)NC1=O
B3: TGFb1_023 (peptide)
peptide: {CH2CO}-F[1Nal]VVNV[4Pal]D[KCOmeglumine][Gly(NCH2CH2Ph)]V[1Nal]YH[KCOpipzaa]CG-NH2
modifications: thioether N-16
SMILES: CC(C)[C@@H]1NC(=O)CN(CCc2ccccc2)C(=O)[C@H](CCCCNC(=O)N(C)C[C@H](O)[C@@H](O)[C@H](O)[C@H](O)CO)NC(=O)[C@H](CC(=O)O)NC(=O)[C@H](Cc2ccncc2)NC(=O)[C@H](C(C)C)NC(=O)[C@H](CC(N)=O)NC(=O)[C@H](C(C)C)NC(=O)[C@H](C(C)C)NC(=O)[C@H](Cc2cccc3ccccc23)NC(=O)[C@H](Cc2ccccc2)NC(=O)CSC[C@@H](C(=O)NCC(N)=O)NC(=O)[C@H](CCCCNC(=O)N2CCN(CC(=O)O)CC2)NC(=O)[C@H](Cc2c[nH]cn2)NC(=O)[C@H](Cc2ccc(O)cc2)NC(=O)[C@H](Cc2cccc3ccccc23)NC1=O

Starred links: 1 amine or outer side, 2 acyl side, 3 side chain; linkers in the order of their positions; H or OH if unused. Positions of bridges follow the written chain, without caps; N, C: chain ends. Non-standard residues stand in square brackets, D forms with d. KCOmeglumine = N6-(methyl-((2S,3R,4R,5R)-2,3,4,5,6-pentahydroxyhexyl)carbamoyl)-L-lysine, CN(C[C@H](O)[C@@H](O)[C@H](O)[C@H](O)CO)C(=O)NCCCC[C@H](N[*:1])C(=O)[*:2]; KCOpipzaa = N6-(4-(carboxymethyl)piperazine-1-carbonyl)-L-lysine, O=C(NCCCC[C@H](N[*:1])C(=O)[*:2])N1CCN(CC(=O)[*:3])CC1; 1Nal = N[C@@H](Cc1cccc2ccccc12)C(=O)O; Gly(NCH2CH2Ph) = O=C(O)CNCCc1ccccc1; 4Pal = N[C@@H](Cc1ccncc1)C(=O)O

Chain of recombinant human TGF-β1 (R&D systems) (P01137 279-390 limits assumed): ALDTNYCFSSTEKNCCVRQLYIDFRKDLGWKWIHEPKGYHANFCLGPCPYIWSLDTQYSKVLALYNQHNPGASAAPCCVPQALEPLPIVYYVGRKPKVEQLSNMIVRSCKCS

This test has as its target recombinant human TGF-β1 (R&D systems) (human, UniProt P01137 279-390). Description: cell-based or functional assay.
As to B1, the SBE reporter % inhibition, peptide 0.062 nM was 5.79%; the SBE reporter % inhibition, peptide 0.185 nM stood at 16.6%; the SBE reporter % inhibition, peptide 0.56 nM stood at 45%; the SBE reporter % inhibition, peptide 1.7 nM was found to be 80.2%. In addition, the SBE reporter % inhibition, peptide 5.0 nM came out at 95.5% and the SBE reporter % inhibition, peptide 15.0 nM was 98.9%.
As for B2, the SBE reporter % inhibition, peptide 0.062 nM is 4.81%; the SBE reporter % inhibition, peptide 0.185 nM is 18.4%; the SBE reporter % inhibition, peptide 0.56 nM worked out at 43.3%; the SBE reporter % inhibition, peptide 1.7 nM was found to be 77.5%. Further, the SBE reporter % inhibition, peptide 5.0 nM came to 94.7% and the SBE reporter % inhibition, peptide 15.0 nM stood at 99.4%.
On to B3, for which the SBE reporter % inhibition, peptide 0.062 nM was found to be 8.58%; the SBE reporter % inhibition, peptide 0.185 nM stood at 24.4%; the SBE reporter % inhibition, peptide 0.56 nM is 49.7%; the SBE reporter % inhibition, peptide 1.7 nM worked out at 82.3%. The SBE reporter % inhibition, peptide 5.0 nM came out at 96% and the SBE reporter % inhibition, peptide 15.0 nM was 99.5%.

For the origin of these results see US20250034212A1, “PEPTIDE” (PEPTIDREAM INC., priority 2021, published 2025).
